Test results reported in PMC7954600.

Target: complex I-containing supercomplex (human (endogenous in fibroblasts and HEK293)) (UniProt P56181)
Assay: complexome profiling (blue native electrophoresis with mass spectrometry); mitochondria-enriched membranes of control fibroblast and control HEK293 cells, solubilised with detergent (digitonin for supercomplexes), 3% to 18% acrylamide blue native gel, gel bands or slices read by quantitative mass spectrometry; co-migration

Sequence of UniProt P56181 (P56181 whole entry, looked up, one chain of several): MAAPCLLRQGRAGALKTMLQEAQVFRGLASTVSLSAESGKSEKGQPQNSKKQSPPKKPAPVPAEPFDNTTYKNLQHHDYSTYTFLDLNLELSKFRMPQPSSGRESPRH

B1: DNAJC30 (natural protein)
chain: SQGDCSYSRTALYDLLGVPSTATQAQIKAAYYRQCFLYHPDRNSGSAEAAERFTRISQAYVVLGSATLRRKYDRGLLSDEDLRGPGVRPSRTPAPDPGSPRTPPPTSRTHDGSRASPGANRTMFNFDAFYQAHYGEQLERERRLRARREALRKRQEYRSMKGLRWEDTRDTAAIFLIFSIFIIIGFYI
Binder B1 has a ratio DNAJC30/complex I in the supercomplex (DNAJC30/complex I) of 0.005.
